Results as given in patent US20090291081A1 (AbbVie / Abbott, published 2009).
Where “and” joins values, the source holds several entries; their conditions need not be identical. Equal entries are not always repeated.

T1: human IL-1α (human, UniProt P01583 113-271)
T1 sequence (looked up): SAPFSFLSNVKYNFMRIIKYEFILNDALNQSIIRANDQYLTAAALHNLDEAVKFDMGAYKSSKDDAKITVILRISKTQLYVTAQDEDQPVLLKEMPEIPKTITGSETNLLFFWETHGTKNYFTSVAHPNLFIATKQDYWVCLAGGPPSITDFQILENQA


Columns and labels:
human IL-1α = target: T1, human IL-1α; assay: cell-based or functional assay
human IL-1β = human IL-1β (human, UniProt P01584 117-269); assay: cell-based or functional assay

Row | IL-1α IC50 (human IL-1α) [nM] | IL-1β IC50 (human IL-1β) | Binder
1 | 5000 | 3.5 nM | ABT2-65-8/ABT1-212 hu IgG1/K wt (bispecific antibody, V domains shown) VH: EVQLLESGGGLVQPGGSLRLSCAASGFTFEDYQMGWVRQAPGKGLEWVSSISAMGNRTYYADSVKGRFTISRDDSKNTLYLQMNSLRAEDTAVYYCAQNLVRMDSRRWMFDYWGQGTLVTVSS VL: DIQMTQSPSSLSASVGDRVTITCRASQRINGNLRWYQQKPGKAPKLLIYSVSQLQSGVPSRFSGSGSGTDFTLTISSLQPEDFATYYCQQGYDWPPTFGQGTKVETKR
2 | 0.652 | 0.03 nM | ABT2-65-201/ABT1-95-15 hu IgG1/K mut (234; 235) (bispecific antibody, V domains shown) VH: EVQLLESGGGLVQPGGSLRLSCVASGFTFEDYQMGWVRQAPGKGLEWVSSISAMGRRTYYADSVKGRFTISRDNSKNTLYLQMNSLRAEDTAVYYCAQNLVRLGRSRWMFDYWGQGTLVTVSS VL: DIQMTQSPSSLSASVGDRVTITCRASQPIVRNLRWYQQKPGKAPKLLIYSSSYLEPGVPSRFSGSGSGTDFTLTISSLQPEDFATYHCQQGYRWPVTFGQGTKVEIKR
3 | 0.068 | 0.15 nM | ABT2-65-166/ABT1-95-184 hu IgG1mut 234, 235/K (bispecific antibody, V domains shown) VH: EVQLLESGGGLVQPGGSLRLSCAASGFTFEDYQMGWVRQAPGKGLEWVSSISAMGGRTYYADSVKGRFTISRDNSKNTLYLQMNSLRAEDTAVYYCAQNLVRLGRSRWMFDYWGQGTLVTVSS VL: DIQMTQSPSSLSASVGDRVTITCRASRTPVRNLRWYQQKPGKAPKLLIYSRSYLEPGVPSRFSGSGSGTDFTLTISSLQPEDFATYHCLQGYRWPPTFGQGTKVEIKR
4 | 1.89 | 0.13 nM | ABT2-65-166/ABT1-95-15 hu IgG1/K wt (bispecific antibody, V domains shown) VH: EVQLLESGGGLVQPGGSLRLSCAASGFTFEDYQMGWVRQAPGKGLEWVSSISAMGGRTYYADSVKGRFTISRDNSKNTLYLQMNSLRAEDTAVYYCAQNLVRLGRSRWMFDYWGQGTLVTVSS VL: DIQMTQSPSSLSASVGDRVTITCRASQPIVRNLRWYQQKPGKAPKLLIYSSSYLEPGVPSRFSGSGSGTDFTLTISSLQPEDFATYHCQQGYRWPVTFGQGTKVEIKR
5 | 20 | 0.1 nM | ABT2-108-521/ABT1-141-25 hu IgG1/K wt (bispecific antibody, V domains shown) VH: EVQLLESGGGLVQPGGSLRLSCAASGFTFAEYTMMWVRQAPGKGLEWVSRIGQDGKNTYYADSVKGRFTISRDNSKNTLYLQMNSLRAEDTAVYYCAKYTGRILGHHLFDYWGQGTLVTVSS VL: DIQMTQSPSSLSASVGDRVTITCRASQWIQKQLAWYQQKPGKAPKLLIYSSSYLQSGVPSRFSGSGSGTDFTLTISSLQPEDFATYYCQQHLRVPMTFGQGTKVEIKR
6 | 400 | 0.5 nM | ABT2-108-518/ABT1-122 hu IgG1/K wt (bispecific antibody, V domains shown) VH: EVQLLESGGGLVQPGGSLRLSCAASGFTFAEYTMMWVRQAPGKGLEWVSRIGQDGKNTYYRMDVKGRFTISRDNSKNTLYLQMNSLRAEDTAVYYCAKYTGRVGVHHLFDYWGQGTLVTVSS VL: DIQMTQSPSSLSASVGDRVTITCRASQPIWTELNWYQQKPGKAPKLLIYGSSSLQSGVPRFSGSGSGTDFTLTISSLQPEDFATYYCQQFAYFPATFGQGTKVEIKR
7 | 0.027 | 0.098 nM | ABT2-108-521/ABT1-95-A3 hu IgG1 wt (bispecific antibody, V domains shown) VH: EVQLLESGGGLVQPGGSLRLSCAASGFTFAEYTMMWVRQAPGKGLEWVSRIGQDGKNTYYADSVKGRFTISRDNSKNTLYLQMNSLRAEDTAVYYCAKYTGRILGHHLFDYWGQGTLVTVSS VL: DIQMTQSPSSLSASVGDRVTITCRASKPGVRNMRWYQQKPGKAPKLLIYSVSYLEPGVPSRFSGSGSGTDFTLTISSLQPEDFATYHCLQGYRWPPTFGQGTKVEIKR
8 | 200 | 0.01 nM | ABT2-108-538x/ABT1-221 huIgG1/K wt (second row of that name; light chain column ABT1-222) (bispecific antibody, V domains shown) VH: EVQLLESGGGLVQPGGSLRLSCAASGFTFADEGMMWVRQAPGKGLEWVSRITYSGKNTYYADSVKGRFTISRDNSKNTLYLQMNSLRAEDTAVYYCAKYTGRILGHHLFDYWGQGTLVTVSS VL: DIQMTQSPSSLSASVGDRVTITCRASQPITRNLRWYQQKPGKAPKLLIYHSSVLQSGVPSRFSGSGSGTDFTLTISSLQPEDFATYYCQQGYRWPVTFGQGTKVEIKR
9 | 1500 | 15 nM | ABT2-108-504/ABT1-122 hu IgG1/K wt (bispecific antibody, V domains shown) VH: EVQLLESGGGLVQPGGSLRLSCAASGFTFADEGMMWVRQAPGKGLEWVSRIGQDGKNTYYADSVKGRFTISRDNSKNTLYLQMNSLRAEDTAVYYCAKYTGRVGVHHLFDYWGQGTLVTVSS VL: DIQMTQSPSSLSASVGDRVTITCRASQPIWTELNWYQQKPGKAPKLLIYGSSSLQSGVPRFSGSGSGTDFTLTISSLQPEDFATYYCQQFAYFPATFGQGTKVEIKR
10 | 1000 | 0.007 nM and 0.02 nM | ABT2-108-537x/ABT1-122 hu IgG1/K wt (bispecific antibody, V domains shown) VH: EVQLLESGGGLVQPGGSLRLSCAASGFTFADEGMMWVRQAPGKGLEWVSRIGQDGKNTYYRMDVKGRFTISRDNSKNTLYLQMNSLRAEDTAVYYCAKYTGRILGHHLFDYWGQGTLVTVSS VL: DIQMTQSPSSLSASVGDRVTITCRASQPIWTELNWYQQKPGKAPKLLIYGSSSLQSGVPRFSGSGSGTDFTLTISSLQPEDFATYYCQQFAYFPATFGQGTKVEIKR
11 | 1000 | 0.025 nM and 0.035 nM | ABT2-108-534x/ABT1-122 hu IgG1/K wt (bispecific antibody, V domains shown) VH: EVQLLESGGGLVQPGGSLRLSCAASGFTFADEGMMWVRQAPGKGLEWVSRITYSGKNTYYADSVKGRFTISRDNSKNTLYLQMNSLRAEDTAVYYCAKYTGRIFSHHLFDYWGQGTLVTVSS VL: DIQMTQSPSSLSASVGDRVTITCRASQPIWTELNWYQQKPGKAPKLLIYGSSSLQSGVPRFSGSGSGTDFTLTISSLQPEDFATYYCQQFAYFPATFGQGTKVEIKR
12 | 100 | 1 nM and 0.45 nM | ABT2-108-612/ABT1-122 hu IgG1/K wt (bispecific antibody, V domains shown) VH: EVQLLESGGGLVQPGGSLRLSCAASGFTFAEYTMMWVRQAPGKGLEWVSRIGQDGKNTYYADSVKGRFTISRDNSKNTLYLQMNSLRAEDTAVYYCAKYTGRIMGHHLFDYWGQGTLVTVSS VL: DIQMTQSPSSLSASVGDRVTITCRASQPIWTELNWYQQKPGKAPKLLIYGSSSLQSGVPRFSGSGSGTDFTLTISSLQPEDFATYYCQQFAYFPATFGQGTKVEIKR
13 | 200 | 0.01 nM | ABT2-108-538x/ABT1-221 huIgG1/K wt (bispecific antibody, V domains shown) VH: EVQLLESGGGLVQPGGSLRLSCAASGFTFADEGMMWVRQAPGKGLEWVSRITYSGKNTYYADSVKGRFTISRDNSKNTLYLQMNSLRAEDTAVYYCAKYTGRILGHHLFDYWGQGTLVTVSS VL: DIQMTQSPSSLSASVGDRVTITCRASQDIWPYLMWYQQKPGKAPKLLIYYSSMLQSGVPSRFSGSGSGTDFTLTISSLQPEDFATYYCQQFRRWPYTFGQGTKVEIKR
14 | 1500 | 10 nM | ABT2-108-603/ABT1-122 hu IgG1/K wt (bispecific antibody, V domains shown) VH: EVQLLESGGGLVQPGGSLRLSCAASGFTFAEYTMMWVRQAPGKGLEWVSRITDAGKNTYYADSVKGRFTISRDNSKNTLYLQMNSLRAEDTAVYYCAKYTGRVGVHHLFDYWGQGTLVTVSS VL: DIQMTQSPSSLSASVGDRVTITCRASQPIWTELNWYQQKPGKAPKLLIYGSSSLQSGVPRFSGSGSGTDFTLTISSLQPEDFATYYCQQFAYFPATFGQGTKVEIKR
15 | 150 | 0.05 nM | ABT2-108-617/ABT1-122 hu IgG1/K wt (bispecific antibody, V domains shown) VH: EVQLLESGGGLVQPGGSLRLSCAASGFTFAEYTMMWVRQAPGKGLEWVSRIGQDGKNTYYADSVKGRFTISRDNSKNTLYLQMNSLRAEDTAVYYCAKYTGRIFTHHLFDYWGQGTLVTVSS VL: DIQMTQSPSSLSASVGDRVTITCRASQPIWTELNWYQQKPGKAPKLLIYGSSSLQSGVPRFSGSGSGTDFTLTISSLQPEDFATYYCQQFAYFPATFGQGTKVEIKR
